Target: Wild-type CFTR (cystic fibrosis transmembrane conductance regulator) N-terminally labelled with GFP or RFP (UniProt P13569)
Assay: FRET or BRET; acceptor-photobleaching FRET between GFP-CFTR (donor) and RFP-CFTR (acceptor) in fixed HEK293T cells, measured intracellularly, basal conditions (air exposure)

Q: With “Wild-type CFTR (cystic fibrosis transmembrane conductance regulator) N-terminally labelled with GFP or RFP (from UniProt P13569 1-1480) (natural protein)” as the substance, how does the FRET efficiency (%E) read?
A: 0%
